{"source": "patent US20090196872A1", "about": "(KIRIN BEER, published 2009)", "key": {"OVA": {"target": "T1, OVA (UniProt P01012 2-386)", "T1 construct": "also called ovalbumin", "T1 sequence": "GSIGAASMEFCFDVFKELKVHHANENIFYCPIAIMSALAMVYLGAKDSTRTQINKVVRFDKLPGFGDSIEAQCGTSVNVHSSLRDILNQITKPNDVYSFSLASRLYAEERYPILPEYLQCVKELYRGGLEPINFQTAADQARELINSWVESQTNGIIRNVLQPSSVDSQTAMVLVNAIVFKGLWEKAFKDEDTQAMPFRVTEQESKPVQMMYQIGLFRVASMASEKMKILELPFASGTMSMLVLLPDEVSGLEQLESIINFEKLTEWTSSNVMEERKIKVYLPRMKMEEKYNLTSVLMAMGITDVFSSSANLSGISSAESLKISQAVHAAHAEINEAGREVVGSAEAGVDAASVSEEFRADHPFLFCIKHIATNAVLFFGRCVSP", "test": "ELISA; positive = more than 2-fold OD450 of control"}, "bovine serum albumin [1]": {"target": "T2, bovine serum albumin (bovine, UniProt P02769 25-607)", "T2 construct": "carrier for immunization", "T2 sequence (P02769 25-607 limits assumed)": "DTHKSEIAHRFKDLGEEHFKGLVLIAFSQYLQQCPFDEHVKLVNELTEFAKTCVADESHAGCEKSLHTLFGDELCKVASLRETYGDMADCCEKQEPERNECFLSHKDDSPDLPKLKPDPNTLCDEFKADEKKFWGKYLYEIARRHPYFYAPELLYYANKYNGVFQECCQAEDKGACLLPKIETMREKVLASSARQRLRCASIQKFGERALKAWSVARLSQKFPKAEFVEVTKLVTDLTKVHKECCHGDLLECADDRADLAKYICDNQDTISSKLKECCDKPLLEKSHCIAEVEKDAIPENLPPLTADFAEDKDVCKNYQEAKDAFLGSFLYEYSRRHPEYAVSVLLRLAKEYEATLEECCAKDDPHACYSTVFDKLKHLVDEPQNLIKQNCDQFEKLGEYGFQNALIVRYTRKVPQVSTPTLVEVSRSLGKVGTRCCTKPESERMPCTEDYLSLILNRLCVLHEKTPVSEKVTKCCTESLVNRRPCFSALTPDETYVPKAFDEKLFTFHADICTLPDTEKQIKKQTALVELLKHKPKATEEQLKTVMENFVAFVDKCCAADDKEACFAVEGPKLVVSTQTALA", "test": "ELISA; positive = more than 2-fold OD450 of control"}, "M2KGENS peptide": {"target": "M2KGENS peptide (influenza A virus)", "test": "peptide ELISA, grade relative to wild-type M2", "procedure": "(§1) ELISA: Antibody titers and antibody specificity as well as antibody production by hybridomas were determined by ELISA. […] After washing twice with PBS/0.1% Tween 20, plates were blocked with PBS/1% BSA (Sigma, St. Louis, Mo.) at 37° C. for 30 min., the antibody or serum was added to the wells and the plates were incubated at 37° C. for 1 hr. After washing four times, diluted HRP conjugated goat anti-human Immunoglobulin gamma chain specific antibody (Jackson Immunoresearch Laboratory, West Grove, Pa.) was added to the wells and incubated for 1 hr at 37° C. After washing four times, TMB substrate solution (DAKO, CA) was added and incubated for 30 min at room temperature. The optical density at 450 nm was measured by a microplate reader."}, "M2TGEK peptide": {"target": "M2TGEK peptide (influenza A virus)", "test": "peptide ELISA, grade relative to wild-type M2", "procedure": "as §1"}, "M2TGS peptide": {"target": "M2TGS peptide (influenza A virus)", "test": "peptide ELISA, grade relative to wild-type M2", "procedure": "as §1"}, "M2TDGEKS peptide": {"target": "M2TDGEKS peptide (influenza A virus)", "test": "peptide ELISA, grade relative to wild-type M2", "procedure": "as §1"}, "M2EG peptide": {"target": "M2EG peptide (influenza A virus)", "test": "peptide ELISA, grade relative to wild-type M2", "procedure": "as §1"}, "M2HTGEKS peptide": {"target": "M2HTGEKS peptide (influenza A virus)", "test": "peptide ELISA, grade relative to wild-type M2", "procedure": "as §1"}, "M2LGS peptide": {"target": "M2LGS peptide (influenza A virus)", "test": "peptide ELISA, grade relative to wild-type M2", "procedure": "as §1"}, "M2GHTGKS peptide": {"target": "M2GHTGKS peptide (influenza A virus)", "test": "peptide ELISA", "procedure": "as §1"}, "bovine serum albumin [2]": {"target": "T2, bovine serum albumin", "test": "ELISA"}}}
{"binder": "human anti-M2 monoclonal antibody no. Z3G1 (recombinant IgG1 type Z3, CHO; ATCC PTA-5967) (antibody, V domains shown) VH: QVQLVQSGAEVKKPGASVKVSCKASGYTFTSYGISWVRQAPGQGLEWMGWISAYNGNTNYAQKLQGRVTMTTDTSTSTAYMELRSLRSDDTAVYYCARAAAGGYFQHWGQGTLVTVSS VL: not shown", "values": [{"measurement": "binding result", "setting": "OVA", "value": "no binding"}, {"measurement": "binding result", "setting": "bovine serum albumin [1]", "value": "no binding"}, {"measurement": "binding result", "setting": "M2KGENS peptide", "value": "binds"}, {"measurement": "binding result", "setting": "M2TGEK peptide", "value": "binds"}, {"measurement": "binding result", "setting": "M2TGS peptide", "value": "binds"}, {"measurement": "binding result", "setting": "M2TDGEKS peptide", "value": "binds"}, {"measurement": "binding result", "setting": "M2EG peptide", "value": "binds"}, {"measurement": "binding result", "setting": "M2HTGEKS peptide", "value": "binds"}, {"measurement": "binding result", "setting": "M2LGS peptide", "value": "binds"}, {"measurement": "binding result", "setting": "M2GHTGKS peptide", "value": "no binding (tested: <10% of binding to wild-type M2 peptide)"}]}
{"binder": "human anti-M2 antibody Z3 (original, IgG3, hybridoma 113Z-3) (antibody, V domains shown) VH: QVQLVQSGAEVKKPGASVKVSCKASGYTFTSYGISWVRQAPGQGLEWMGWISAYNGNTNYAQKLQGRVTMTTDTSTSTAYMELRSLRSDDTAVYYCARAAAGGYFQHWGQGTLVTVSS VL: not shown", "values": [{"measurement": "binding result", "setting": "bovine serum albumin [2]", "value": "no binding"}]}
